Data published in patent CN117736316A.

Target: HIS-SFTSV-NP抗原 (recombinant SFTSV NP antigen expressed in E. coli BL21(DE3) from pET-30a) (新布尼亚病毒 (SFTSV))
Assay: indirect ELISA, NP antigen coated

B1: 单克隆抗体anti-SFTSV-NP-mab1 (antibody, V domains shown)
VH: EVQLEESGGGLVQPGGSRKLSCAVSGFTFSNFGIHWVRQAPEKGLEWVAYISSGGTTIYYADTVKGRFTISRDNPMNTLFLQMTSLRSEDTAMYHCARSDYFGMMDYWGQGTSVTVSS
VL: DIVITQTPSSLSASLGDRVTISCRASQDIRNYLNWYQQKPDGTVKLLVYYTSRLHSGVPSRFSGSGSGTDFSLTISNLEQEDIATYFCQQAHTLLTFGAGTKLEIK
For B1, the 工作浓度 was 15.6 ng/mL and the 检测限 (of NP protein) was 1.95 ng/mL.
